The results in this text go back to the supplement of paper PMC9112550, “Optimization of the antimicrobial peptide Bac7 by deep mutational scanning” (BMC Biology, 2022).

The test system of this series is Escherichia coli TOP10. The series can be described thus: shrunken log2 fold change of peptide-encoding DNA abundance (4.5 h post-induction vs induction); higher = less antimicrobial activity (less host growth inhibition). The settings on record: time post-induction: 4.5 h; library: site-saturation at positions 5, 18, 19, 20.
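Further: peptides expressed intracellularly from a pBAD plasmid library in pooled LB shake-flask culture, induced with 0.3% L-arabinose, DNA abundance read by NGS, three biological replicates, DESeq2 with apeglm shrinkage.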

Regarding RRIRWRPPRLPRPRPRPDMMPRP, the “shrunken log2 fold change” value is -0.0236.

Consider RRIRHRPPRLPRPRPRPSRSPRP, for which the “shrunken log2 fold change” value is -0.202.

For RRIRERPPRLPRPRPRPPWVPRP, the “shrunken log2 fold change” value is -0.0642.

As to RRIRYRPPRLPRPRPRPWIKPRP, the “shrunken log2 fold change” value stood at 0.106.

RRIRSRPPRLPRPRPRPIHWPRP: the “shrunken log2 fold change” value was 0.151.

Turning to RRIRFRPPRLPRPRPRPGTIPRP, the “shrunken log2 fold change” value is -0.173.

As to RRIRVRPPRLPRPRPRPKAWPRP, the “shrunken log2 fold change” value turned out to be 0.0531.

Consider RRIRERPPRLPRPRPRPWTAPRP, for which the “shrunken log2 fold change” value is -0.478.

For RRIRNRPPRLPRPRPRPISNPRP, the “shrunken log2 fold change” value stood at 0.0351.

As to RRIRPRPPRLPRPRPRPAHEPRP, the “shrunken log2 fold change” value was 0.356.

Consider RRIRSRPPRLPRPRPRPAIPPRP, for which the “shrunken log2 fold change” value was -0.139.

With RRIRVRPPRLPRPRPRPQLLPRP, the “shrunken log2 fold change” value is -0.0606.

Consider RRIRVRPPRLPRPRPRPRSVPRP, for which the “shrunken log2 fold change” value turned out to be 0.0756.

With RRIRCRPPRLPRPRPRPHVHPRP, the “shrunken log2 fold change” value is -0.245.

On to RRIRDRPPRLPRPRPRPAAPPRP, for which the “shrunken log2 fold change” value turned out to be 0.545.

On to RRIRTRPPRLPRPRPRPEDQPRP, for which the “shrunken log2 fold change” value was found to be 0.112.

Regarding RRIRERPPRLPRPRPRPKTTPRP, the “shrunken log2 fold change” value was -0.107.

With RRIRGRPPRLPRPRPRPDVYPRP, the “shrunken log2 fold change” value was -0.0497.

Take RRIRTRPPRLPRPRPRPRRDPRP: the “shrunken log2 fold change” value amounted to 0.394.

On to RRIRSRPPRLPRPRPRPRKRPRP, for which the “shrunken log2 fold change” value is 0.213.

On to RRIRPRPPRLPRPRPRPNWIPRP, for which the “shrunken log2 fold change” value was -0.441.

For the sequence RRIRHRPPRLPRPRPRPTNLPRP, the “shrunken log2 fold change” value is -0.288.

With RRIRDRPPRLPRPRPRPRTSPRP, the “shrunken log2 fold change” value amounted to 0.353.

RRIRWRPPRLPRPRPRPSMHPRP: the “shrunken log2 fold change” value is -0.0863.

On to RRIRSRPPRLPRPRPRPWPHPRP, for which the “shrunken log2 fold change” value is -0.0676.

As for RRIRFRPPRLPRPRPRPIQYPRP, the “shrunken log2 fold change” value was -0.451.

On to RRIRQRPPRLPRPRPRPAGQPRP, for which the “shrunken log2 fold change” value is -0.143.

As for RRIRWRPPRLPRPRPRPMKYPRP, the “shrunken log2 fold change” value is -0.311.

With RRIRNRPPRLPRPRPRPKMCPRP, the “shrunken log2 fold change” value is -0.0269.

RRIRDRPPRLPRPRPRPWCIPRP: the “shrunken log2 fold change” value is -0.383.

RRIRPRPPRLPRPRPRPNRCPRP: the “shrunken log2 fold change” value amounted to 0.0358.

Regarding RRIRQRPPRLPRPRPRPQLLPRP, the “shrunken log2 fold change” value is -0.00691.

On to RRIRSRPPRLPRPRPRPPQFPRP, for which the “shrunken log2 fold change” value is -0.103.

As for RRIRQRPPRLPRPRPRPMTRPRP, the “shrunken log2 fold change” value turned out to be 0.0107.

With RRIRTRPPRLPRPRPRPQGLPRP, the “shrunken log2 fold change” value is -0.0814.

With RRIRLRPPRLPRPRPRPGWIPRP, the “shrunken log2 fold change” value turned out to be 0.0964.

With RRIRTRPPRLPRPRPRPSMNPRP, the “shrunken log2 fold change” value was -0.28.

As for RRIRLRPPRLPRPRPRPQANPRP, the “shrunken log2 fold change” value was -0.289.

For the sequence RRIRDRPPRLPRPRPRPKFDPRP, the “shrunken log2 fold change” value is -0.0895.

Regarding RRIRYRPPRLPRPRPRPNVIPRP, the “shrunken log2 fold change” value was -0.338.

As for RRIRGRPPRLPRPRPRPLGNPRP, the “shrunken log2 fold change” value was found to be 0.17.

Take RRIRRRPPRLPRPRPRPEAQPRP: the “shrunken log2 fold change” value stood at 0.253.

As to RRIRTRPPRLPRPRPRPCWWPRP, the “shrunken log2 fold change” value is 0.636.

For the sequence RRIRDRPPRLPRPRPRPGNTPRP, the “shrunken log2 fold change” value was -0.165.

As to RRIRRRPPRLPRPRPRPAGFPRP, the “shrunken log2 fold change” value was 0.439.

In the case of RRIRDRPPRLPRPRPRPQTWPRP, the “shrunken log2 fold change” value is -0.109.

For the sequence RRIRCRPPRLPRPRPRPFTAPRP, the “shrunken log2 fold change” value is -0.553.

Take RRIRKRPPRLPRPRPRPIEYPRP: the “shrunken log2 fold change” value is -0.156.

In the case of RRIRSRPPRLPRPRPRPEQRPRP, the “shrunken log2 fold change” value was -0.011.

RRIRERPPRLPRPRPRPFGKPRP: the “shrunken log2 fold change” value is -0.01.

On to RRIRDRPPRLPRPRPRPNCKPRP, for which the “shrunken log2 fold change” value came out at 0.135.

Turning to RRIRDRPPRLPRPRPRPIHSPRP, the “shrunken log2 fold change” value is -0.00999.

For RRIRMRPPRLPRPRPRPKDQPRP, the “shrunken log2 fold change” value worked out at 2.28.

RRIRFRPPRLPRPRPRPKDKPRP: the “shrunken log2 fold change” value is -0.223.

Regarding RRIRDRPPRLPRPRPRPPYIPRP, the “shrunken log2 fold change” value was -0.346.

For RRIRCRPPRLPRPRPRPQGYPRP, the “shrunken log2 fold change” value was -0.0448.

As to RRIRFRPPRLPRPRPRPGKLPRP, the “shrunken log2 fold change” value is -0.0682.

As for RRIRRRPPRLPRPRPRPIHEPRP, the “shrunken log2 fold change” value was determined as 0.086.

As for RRIRIRPPRLPRPRPRPMVVPRP, the “shrunken log2 fold change” value is -0.0948.

On to RRIRWRPPRLPRPRPRPQSPPRP, for which the “shrunken log2 fold change” value worked out at 0.0211.

Regarding RRIRRRPPRLPRPRPRPSWKPRP, the “shrunken log2 fold change” value is 0.16.

RRIRPRPPRLPRPRPRPWMFPRP: the “shrunken log2 fold change” value was -0.306.

As to RRIRKRPPRLPRPRPRPPEHPRP, the “shrunken log2 fold change” value was found to be 0.197.

With RRIRVRPPRLPRPRPRPFMSPRP, the “shrunken log2 fold change” value was 0.0334.

In the case of RRIRVRPPRLPRPRPRPCLPPRP, the “shrunken log2 fold change” value was -0.219.

With RRIRLRPPRLPRPRPRPSARPRP, the “shrunken log2 fold change” value was found to be 0.0346.

Consider RRIRHRPPRLPRPRPRPYTVPRP, for which the “shrunken log2 fold change” value turned out to be 0.0229.

As for RRIRERPPRLPRPRPRPHRGPRP, the “shrunken log2 fold change” value was 0.0526.

As to RRIRQRPPRLPRPRPRPICKPRP, the “shrunken log2 fold change” value was -0.00411.

Turning to RRIRERPPRLPRPRPRPNVDPRP, the “shrunken log2 fold change” value is -0.0153.

For the sequence RRIRSRPPRLPRPRPRPTIFPRP, the “shrunken log2 fold change” value was -0.377.

With RRIRGRPPRLPRPRPRPGTIPRP, the “shrunken log2 fold change” value is 0.00615.

Take RRIRWRPPRLPRPRPRPWCTPRP: the “shrunken log2 fold change” value was found to be 0.118.

Turning to RRIRVRPPRLPRPRPRPNKDPRP, the “shrunken log2 fold change” value was -0.448.

In the case of RRIRFRPPRLPRPRPRPQDKPRP, the “shrunken log2 fold change” value was -0.308.

For RRIRNRPPRLPRPRPRPSVVPRP, the “shrunken log2 fold change” value was -0.0462.

For the sequence RRIRARPPRLPRPRPRPPAYPRP, the “shrunken log2 fold change” value stood at 0.3.

For the sequence RRIRHRPPRLPRPRPRPIHGPRP, the “shrunken log2 fold change” value was -0.0135.

With RRIRQRPPRLPRPRPRPIFMPRP, the “shrunken log2 fold change” value is -0.00126.

With RRIRVRPPRLPRPRPRPISLPRP, the “shrunken log2 fold change” value was -0.0572.

Regarding RRIRIRPPRLPRPRPRPLYQPRP, the “shrunken log2 fold change” value was -0.904.

Take RRIRMRPPRLPRPRPRPMEWPRP: the “shrunken log2 fold change” value turned out to be 0.379.

On to RRIRKRPPRLPRPRPRPGATPRP, for which the “shrunken log2 fold change” value was found to be 1.09.

As to RRIRGRPPRLPRPRPRPMALPRP, the “shrunken log2 fold change” value was -0.0079.

Turning to RRIRERPPRLPRPRPRPVVDPRP, the “shrunken log2 fold change” value was 0.0306.

With RRIRKRPPRLPRPRPRPCPCPRP, the “shrunken log2 fold change” value is 0.00911.

As to RRIRVRPPRLPRPRPRPIGEPRP, the “shrunken log2 fold change” value was 0.0407.

Consider RRIRPRPPRLPRPRPRPRVMPRP, for which the “shrunken log2 fold change” value came to 0.327.

On to RRIRTRPPRLPRPRPRPDLIPRP, for which the “shrunken log2 fold change” value was -0.0343.

RRIRQRPPRLPRPRPRPCQIPRP: the “shrunken log2 fold change” value is -0.298.

On to RRIRVRPPRLPRPRPRPYRMPRP, for which the “shrunken log2 fold change” value is -0.467.

As for RRIRNRPPRLPRPRPRPKCLPRP, the “shrunken log2 fold change” value amounted to 0.0771.

With RRIRHRPPRLPRPRPRPGCHPRP, the “shrunken log2 fold change” value is -0.242.

RRIRQRPPRLPRPRPRPGLSPRP: the “shrunken log2 fold change” value stood at 0.0405.

RRIRARPPRLPRPRPRPGEYPRP: the “shrunken log2 fold change” value turned out to be 0.0829.

On to RRIRSRPPRLPRPRPRPFVPPRP, for which the “shrunken log2 fold change” value is -0.27.

With RRIRIRPPRLPRPRPRPCRTPRP, the “shrunken log2 fold change” value was -0.333.

On to RRIRERPPRLPRPRPRPKPTPRP, for which the “shrunken log2 fold change” value was 0.148.

For the sequence RRIRLRPPRLPRPRPRPQDAPRP, the “shrunken log2 fold change” value was 0.0335.

Take RRIRVRPPRLPRPRPRPFYVPRP: the “shrunken log2 fold change” value amounted to 1.07.

For RRIRDRPPRLPRPRPRPKKLPRP, the “shrunken log2 fold change” value is -0.0595.

RRIRQRPPRLPRPRPRPSDNPRP: the “shrunken log2 fold change” value was -0.394.

RRIRCRPPRLPRPRPRPFSCPRP: the “shrunken log2 fold change” value was determined as 0.0218.

Consider RRIRCRPPRLPRPRPRPPLIPRP, for which the “shrunken log2 fold change” value is -0.000572.

RRIRFRPPRLPRPRPRPEMKPRP: the “shrunken log2 fold change” value is 0.0843.

In the case of RRIRFRPPRLPRPRPRPILRPRP, the “shrunken log2 fold change” value is -0.156.

Take RRIRTRPPRLPRPRPRPILKPRP: the “shrunken log2 fold change” value is -0.348.

On to RRIRQRPPRLPRPRPRPVFLPRP, for which the “shrunken log2 fold change” value was -0.218.

Take RRIRSRPPRLPRPRPRPDSEPRP: the “shrunken log2 fold change” value is 0.139.

RRIRERPPRLPRPRPRPGCIPRP: the “shrunken log2 fold change” value was -1.12.

For RRIRDRPPRLPRPRPRPDLMPRP, the “shrunken log2 fold change” value was determined as 0.043.

Turning to RRIRTRPPRLPRPRPRPVCQPRP, the “shrunken log2 fold change” value was 2.97.

For the sequence RRIRWRPPRLPRPRPRPSNMPRP, the “shrunken log2 fold change” value was -0.923.

RRIRIRPPRLPRPRPRPVDTPRP: the “shrunken log2 fold change” value is -0.282.

Regarding RRIRTRPPRLPRPRPRPHVKPRP, the “shrunken log2 fold change” value is -0.126.

Regarding RRIRARPPRLPRPRPRPFVAPRP, the “shrunken log2 fold change” value amounted to 0.254.

Consider RRIRARPPRLPRPRPRPRNHPRP, for which the “shrunken log2 fold change” value came to 0.0958.

On to RRIRRRPPRLPRPRPRPCLGPRP, for which the “shrunken log2 fold change” value was -0.0846.

On to RRIRKRPPRLPRPRPRPMPPPRP, for which the “shrunken log2 fold change” value worked out at 0.729.

Take RRIRWRPPRLPRPRPRPKRIPRP: the “shrunken log2 fold change” value came out at 0.364.

Consider RRIRFRPPRLPRPRPRPRVRPRP, for which the “shrunken log2 fold change” value turned out to be 0.0771.

Turning to RRIRMRPPRLPRPRPRPNPWPRP, the “shrunken log2 fold change” value came to 0.123.

Turning to RRIRDRPPRLPRPRPRPTDHPRP, the “shrunken log2 fold change” value was -0.0425.

RRIRARPPRLPRPRPRPQRHPRP: the “shrunken log2 fold change” value came to 0.212.

On to RRIRKRPPRLPRPRPRPVQPPRP, for which the “shrunken log2 fold change” value stood at 0.0838.
